# Laboratory results taken from the DeepSol protein solubility set.
# Assay: soluble on expression in E. coli; label from the status in PepcDB or PDB records
row,Sequence,soluble on expression in E. coli
1,TVTSASDQTTTFIQTISPTAIEISKTYDLYASVLLAQAILESSSGQSDLSKAPNYNLFGIKGEYKGKSVQMPTLEDDGKGNMTQIQAPFRAYPNYSASLYDYAELVSSQKYASVWKSNTSSYKDATAALTGLYATDTAYASKLNQIIETYSL,not soluble
2,TWVVSPAEKAKYDEIFLKTDKDMDGFVSGLEVREIFLKTGLPSTLLAHIWSLCDTKDCGKLSKDQFALAFHLISQKLIKGIDPPHVLTPEMIPPS,soluble
3,TYAFQRRRFWETPGADGPADAAGLGLGATEHALLGAVVERPDSDEVVLTGRLSLADQPWLADHVVNGVVLFPGAGFVELVIRAGDEVGCALIEELVLAAPLVMHPGVGVQVQVVVGAADESGHRAVSVYSRGDQSQGWLLNAEGMLGVAAAETPMDLSV,soluble
4,VAHFTFQPDPEPREYGQTQKMNLFQSVTSALDNSLAKDPTAVIFGEDVAFGGVFRCTVGLRDKYGKDRVFNTPLCEQGIVGFGIGIAVTGATAIAEIQFADYIFPAFDQIVNEAAKYRYRSGDLFNCGSLTIRSPWGCVGHGALYHSQSPEAFFAHCPGIKVVIPRSPFQAKGLLLSCIEDKNPCIFFEPKILYRAAAEEVPIEPYNIPLSQAEVIQEGSDVTLVAWGTQVHVIREVASMAKEKLGVSCEVIDLRTIIPWDVDTICKSVIKTGRLLISHEAPLTGGFASEISSTVQEECFLNLEAPISRVCGYDTPFPHIFEPFYIPDKWKCYDALRKMINYGGHHHHHH,soluble
5,VAYWLVKSEPSVWSWDQQVAKGAAGEAWTGVRNHSAKLHMVAMRRGDRAFYYHSNEGKEIVGIAEIIREAYPDPTDASGKFVCVDIKADKPLKTPVTLAAVKAEPRLADMALMKYSRLSVQPVTAEEWKLVCKMGGLLEHHHHHH,soluble
6,VEHEQQVTESPSLASVPTADELFDFHIGDRVLIGNVQPGILRFKGETSFAKGFWAGVELDKPEGNNNGTYDGIAYFECKEKHGIFAPPQKISHIPENFDDYVDINEDED,soluble
7,VFADKLDITVDQKKIILPYWLSRPVSYGAVIIVSGGETAQWSLLLEQFAKGLARNGWSVVLLNCTKNNSIPWINQLPEVISTLRQNNNKRIVLVHYGDQLNLALEYFSKPQSKMINGLVMLSAYDLNRNLQKVPRLRFPLFDIVGQFDYDMVRQQRKSREEKFKENSYLAIDIPGATHDYQYSQQLLLAFVHGWM,not soluble
8,VGGQVRIAANTSSITQFLPEDLAGFMQRHPAVRIHLEEQNSSDIVTAVAENRADVGIFADRTPAAGLTTVPYRLDELVLITPPRHPLAARAQVAFADTLDCDYVGLPPATSLATRLADESARLDKSIRLRIQVRSFDAICRMVVAT,not soluble
9,VGKVFVDAIVKFTKEGDKIPLEIVWDDGRRFEVDRVLDVTKAASLKAGGRGTRYKCRIRGKEIYLFFDDEKWFVETGNK,not soluble
10,VGSFYGQYLSIRKTEALLRNELNALTPATVMELADKLPEKSSSLVISYIRQVLQAHESPAQIQRLLANFEIAADKDLAISKTLTKLGP,not soluble
11,VIESMSDGYIVVDTSNSIVDVNRAVLELAGKTRKEVLGKNLTYLFGEGVELLCHTPEGDFGREISLKSGSEIKFFTVSVSPLMARNEPEGKLIMIHDIT,not soluble
12,VLRHISPAFAEDPLRVLRAARFMARLAPLGFSIAPETLAMMRQMAANGELNSLIPERIWKELSRSLTYTQPAAFLHTLRTVNALEVVLPELNALYGVPQHADYHPEIDTGLHQELVSDIAAKLAPGDMLIGFAALCHDLGKALTPRATWPHHPMHEQRGMAPTQQLSERLKVPRNYQQLALIACREHLNVHRLSKLHDNTVYELLQRCDAFRRPERIAQLAIVCEADYRGRYGHEDANYPQG,not soluble
13,VLTDIQIAQSCKMKPITQVAAELGIDEEELELYGKYKAKLSDKLWERVKDRPDGKLVLVTAINPTPAGEGKTTTTVGLGQAMARIGKKAVIALREPSLGPVMGIKGGAAGGGYSQVVPMEDINLHFTGDMHAITAANNLLSAAIDNHIQQGNELNIDVRQIIWKRAMDMNDRALRNIVVGLGGKANGVPREDGFQITVASEVMAVLCLSTGLMDLKERLGRILIGYTYDGKPVFAKDLKVNGAMALLLKDAIKPNLVQTLENTPAIVHGGPFANIAHGCNSIVATRLGLKLADYCITEAGFGADLGAEKFFNIKCRYAGLKPDLVVLVATIRALKYNGGVKKENLGIENLPALEKGFVNLEKHIENIRKFQVPLLVAINHFDTDSEAEIEYVKNRCKALNVEVAFSDVFSKGSEGGIELAEKVVKLTETQKSNFKPLYDVNLSIREKIEIIAREIYGADSVNILPAAERAIKKIEELKMDKLPICVAKTQYSLSDDPTLLGRPQGFVITVREIKLSSGAGFIVAITGDIMTMPGLPKVPAAEKIDIDENGVITGLF,soluble
14,VMGKRYVATPQQSQWEMVVNTPLECQLVHPIPSFGDAVFSSRANKKINLDFELKMRRPMGETRNVSLISMPPPWRPGEHADRITNLKFFKQFDGYVGGQTAWGILSELEKGRYPTFSYQDWQSRDQRIEVALSSVLFQNKYNAFSDCISNLLKYSFEDIAFTILHYERQGDQLTKASKKRLSQIADYIRHNQDIDLVLVATYTDSTDGKSASQSLSERRAESLRDYFQSLGLPEDRIQVQGYGKRRPIADNGSPIGKDKNRRVVISLGRTQVHHHHHH,soluble
15,VPGILMCEIFIRANQRSYSVQARSLRLHGVATSVRLEQLFWDVLEEIAARDGMRVTQLIERLYDELVQYRGEAANFTSFLRVCCLRYQVLQAEGRIPADATVPIRSLDAQAVLRGLPANLYDSR,not soluble
16,VPLEHFNVPYEDSFFPAVRVKFQGSTKTLIFHGGYDSCLEEMLPFFSAFENLGYDIIAFEGPGQGMALKNGLKFIHNWERPVSALLDYFNLNEVTILGCSWGGYFCLRAAAFEKRIKAAIVYDIFYCGMDVIGMKNKEMRYELEKLLNNNEKDKINELMYSKMKADIDFNWKISKGMDNTMTYTPYDFLKAIQLHTMDGIEELIDQDVLLLAGEEDQYVPIEAMKLFEDRLVNANITKKIFTKETGGEQHCQVGRIDLAFDEIKKFLVR,not soluble
17,VPRIAEVRDAAEPSSEEQRARHVRMLEAAIELATEKELARVQMHEVAKRAGVAIGTLYRYFPSKTHLFVAVMVDQIDRMGVGFKKSAPPGESPQDAVYNVLVRATRGLLRRPALSTAMIQSTSTANVASVPDAGKVDRAFRQIMLDAAGIEHPTEEDLTALRLLVQLWFGVIQSCLNGRVSIPDAESDIRRACDLLLVNLSHR,soluble
18,VQSMSDESEKNSASPDAMRVGTRVLVRRQPEAATGVIVEDYAELTDTAGRGHDWAPVHRWAVALDDGRLVFADTEDLTVDIGTVDSE,not soluble
19,VRNSPDLLDEIRAGITVHARPDLQTPIDGLLLSKVTAESAAPEYSLTEPLLVIMTQGGKRLLLGDRLYEYRAGQCLVVTASVPVTGHYIDISEGAPSLAMGLVLRPAAIAALVLQAPTERWSRGAAGVPAIETGDADVHLLDAAARMLRLLDHPADAPVLAPLIEQEILWRLLTGPHGSTIRQIGMADSDLAHVSRAIHWIRDNYSEPMRIDDLARLSSMSASAFHRHFRAVTAMSPLQYQKRIRLQHARSMLVAHPGDVAGVGHHVGYDSPSQFNREYRRLFGASPGKDAHGLRGNTALSDTGPLP,not soluble
20,VRQKGIDIIFMLDISNSMLARDTAPDRLTHAKTELLQISRRLGDGRKALLLFAGTPVVQCPLTDDEEDFEILLDMAAPELITTQGTDYRRAFDAALKLTNSGGELSSNETVLVLASDGEDHGNDLGDIATAMKTRGVHLHVIGVGGVQPVPIPMQGGPKRDQQGKIVLTSFKPEPLASLIKTAKGKFYYSRPDAPVHDAVADDIAAEAAEA,not soluble
21,VSSGAGSDATGAGGVHAAGSGDRAVAAAVERAKATAARNIPAFDDLPVPADTANLREGADLNNALLALLPLVGVWRGEGEGRGPDGDYRFGQQIVVSHDGGDYLNWESRSWRLTATGDYQEPGLREAGFWRFVADPYDPSESQAIELLLAHSAGYVELFYGRPRTQSSWELVTDALARSRSGVLVGGAKRLYGIVEGGDLAYVEERVDADGGLVPHLSARLSRFVG,soluble
